Experimental data published in paper PMC4755027.

Target: Human TLR4 on HEK-Blue reporter cells (human) (UniProt O00206)
Conditions: scale: absorbance at 640 nm

UniProt O00206, sequence (O00206 24-839): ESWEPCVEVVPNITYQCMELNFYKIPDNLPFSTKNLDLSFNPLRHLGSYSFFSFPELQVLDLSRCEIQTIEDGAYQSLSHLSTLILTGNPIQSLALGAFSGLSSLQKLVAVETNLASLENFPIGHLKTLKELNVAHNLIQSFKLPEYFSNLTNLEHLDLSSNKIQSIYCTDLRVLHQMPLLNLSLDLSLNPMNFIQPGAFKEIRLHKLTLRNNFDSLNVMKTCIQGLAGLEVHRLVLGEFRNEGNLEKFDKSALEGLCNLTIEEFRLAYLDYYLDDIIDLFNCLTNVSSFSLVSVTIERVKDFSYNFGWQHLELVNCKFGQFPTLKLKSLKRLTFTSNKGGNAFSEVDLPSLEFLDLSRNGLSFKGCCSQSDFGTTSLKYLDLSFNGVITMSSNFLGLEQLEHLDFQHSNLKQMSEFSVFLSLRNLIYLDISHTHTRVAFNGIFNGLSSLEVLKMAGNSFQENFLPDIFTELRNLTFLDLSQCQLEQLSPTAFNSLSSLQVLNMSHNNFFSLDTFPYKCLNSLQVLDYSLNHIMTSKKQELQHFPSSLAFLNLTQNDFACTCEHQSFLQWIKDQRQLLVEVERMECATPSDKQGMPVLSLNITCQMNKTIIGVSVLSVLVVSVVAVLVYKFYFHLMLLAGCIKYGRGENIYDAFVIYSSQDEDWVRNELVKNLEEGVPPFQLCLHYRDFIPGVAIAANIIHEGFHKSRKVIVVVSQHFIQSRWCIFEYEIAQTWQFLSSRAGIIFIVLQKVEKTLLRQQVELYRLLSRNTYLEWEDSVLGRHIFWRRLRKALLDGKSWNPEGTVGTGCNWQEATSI

secreted alkaline phosphatase of HEK-Blue human TLR4 reporter cells, absorbance at 640 nm normalized to media controls, mean of three experiments | secreted alkaline phosphatase of HEK-Blue human TLR4 reporter cells, absorbance at 640 nm normalized to media controls, mean of three experiments; significantly superior to equimolar ANXA2t | Substance
1.7 | – | Bovine annexin A2 heterotetramer (from UniProt P04272 1-339; P60902 1-97) (complex)
– | 2.7 | Human monomeric annexin A2 (from UniProt P07355 1-339) (natural protein)
